Assay results reported in patent US20090304651A1 (published 2009).

Columns and labels:
[1] = biological target: T1, recombinant human IGF-II (Insulin-like Growth Factor II) (human, UniProt P01344 25-91, biotinylated (Biotinyl-IGF-II, GroPep) where immobilised in SPR, site not stated; not biotinylated in ITC and as SPR analyte); test: SPR, IGF-II immobilised, steady state
T1 construct: also called IGF2; IGF-2
Procedure: Kinetic analysis by Surface Plasmon Resonance (SPR) was conducted on a BIAcore 3000 biosensor (BIAcore, Uppsala, Sweden) at 25° C. in HBS-EP (10 mM HEPES, pH 7.4, 150 mM NaCl, 3 mM EDTA, 0.005% surfactant P20) at a flow rate of 40 μl/min. […] Kinetic experiments consisted of a two minute injection of analyte followed by a 100 s dissociation phase in running buffer, after which the binding surface was regenerated with a 2 minute injection of 2 M MgCl₂. A blank flow cell was used for in-line reference subtraction of changes due to differences in refractive index of running buffer versus sample and a buffer-only injection was used to subtract instrument noise and drift. Injections were performed in duplicate for each concentration and in a randomised order. Kinetic parameters were determined by global fitting of sensorgrams to a two-state (conformational change) binding model using BIAevaluation software version 4.0.1. In all cases the minor component made an insignificant contribution to the overall affinity and as such only the kinetic parameters of the major binding component were used. For each interaction the dissociation affinity constant (KD) was also calculated by fitting of the response of each concentration at equilibrium to a steady-state affinity model using BIAevaluation. […]

[2] = biological target: T1, recombinant human IGF-II (Insulin-like …); test: ITC
Procedure: Calorimetric measurements were performed using a VP-ITC microcalorimeter (MicroCal). All solutions were thoroughly degassed before use by stirring under vacuum. […] The sample cell contained either wild type domain 11 (7 uM) or the E1544A mutant (8 μM), also in HBS-E buffer. To correct for the heat effects of dilution and mixing, reaction heats obtained from a control experiment, in which IGF2 was injected into HBS-E, were subtracted. Calorimetric data were analysed using MicroCal ORIGIN software (version 5.0) supplied with the instrument. Thermodynamic parameters were derived by fitting the binding isotherms to a single-site binding model. Values for dissociation affinity constants (KD) were determined from duplicate experiments.
In order to validate the SPR sensorgram data, ITC was used to assess the binding affinity between domain 11 and IGF-II. The affinity of the E1544A mutant was also assessed by ITC in order to confirm whether use of a second technique agreed as to the apparent increase in affinity (FIG. 6 and Table 6). Titrations were performed using 17×15 μl injections of 40 μM IGF-II (after an initial 7.51 injection) into the reaction cell containing wild type domain 11 or the E1544A mutant. […] The two fold differences may be simply accounted for by the fidelity of both techniques.

T1 sequence (P01344 25-91 limits assumed): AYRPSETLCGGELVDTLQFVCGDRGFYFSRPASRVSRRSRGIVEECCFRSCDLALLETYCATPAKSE

Kd [1] | relative affinity increase over wild type [2] | Binder
103 nM |  | wild type IGF2R domain 11 (amino acids 1511-1650) with C-terminal His6 tag, from Pichia pastoris (receptor, also called WT; wild type domain 11) NEHDDCQVTNPSTGHLFDLSSLSGRAGFTAAYSEKGLVYMSICGENENCPPGVGACFGQTRISVGKANKRLRYVDQVLQLVYKDGSPCPSKSGLSYKSVISFVCRPEAGPTNRPMLISLDKQTCTLFFSWHTPLACEQATHHHHHH
 | ~2 fold | IGF2R domain 11 E1544A (amino acids 1511-1650, C-terminal His6 tag, from Pichia pastoris) (receptor) NEHDDCQVTNPSTGHLFDLSSLSGRAGFTAAYSAKGLVYMSICGENENCPPGVGACFGQTRISVGKANKRLRYVDQVLQLVYKDGSPCPSKSGLSYKSVISFVCRPEAGPTNRPMLISLDKQTCTLFFSWHTPLACEQATHHHHHH
